Reference: article PMC4542195 (mBio, 2015)

Molecular target: the molecule itself
Test: SEC

B1: VanTG catalytic (C-terminal cytoplasmic) domain, residues 339 to 712, as used in solution (size excl (domain or fragment)
chain: TADTDRAYLEINLNNLEHNVNTLQKAMSPKCELMAVVKAEAYGHGMYEVTTYFEPIGVFYLAVATIDEGIRLRKYGIFSEILILGYTSPSRAKELCKFELTQTLIDYRYLLLLNKQGYDIKAHIKIDTGMHRLGFSTEDKDKILAAFFLKHIKVAGIFTHLCAADSLEEKEVAFTNKPIGSFYKVLDWPKSSGLNIPKVNIQTSYGLWNIQSWNVIYQSGVALYGVLRSTNDKTKLETDLRACSFLKAKVVLIRKIKQGGSVGYSRAFTATRDSLIAILPIGYADGFPRNLSCGNSYVLIGGRQAPIVGKICMDQLAVDVTDIPNVKTGSIATLIGKDGKEEITAPMVAESAESITNELLSRMEHRLNIIRRA
stoichiometry N: 2
